Experimental data reported in patent US20250127807A1, “TREATMENT OF VAGINAL DYSBIOTIC CONDITIONS WITH ASSOCIATED ELEVATED VAGINAL CALPROTECTIN” (priority 2022, published 2025).

Set-up: species or system women
Settings: in vivo
Description: Elevated levels of calprotectin in BV and in L iners-dominated vaginal microbiomes sequester manganese and zinc, preventing growth of L crispatus its maintenance of a healthy vaginal microbiome. […] Six women each received 3 doses of formulation Z2 separated by 48 hours. Vaginal fluid swabs were collected at t=0, 2, 4, 8, 12, 18, 24, 30, 36, and 42 hours post dose and vaginal fluid concentrations of lactoferrin and mannitol were determined. Average concentrations for the combined 18 dose administrations were obtained based on calculation of Area Under Curve for the locally estimated scatterplot smoothing (Loess) profile of lactoferrin and mannitol concentrations assuming 6 mL volume of distribution. The average concentration of lactoferrin was 33 mg/mL and the average concentrations of mannitol was 20 mg/mL. Average concentrations of both substances correspond to 0.1 fraction or 10% of the administered dose, 300 mg lactoferrin and 195 mg mannitol per Z2 tablet respectively. The 0.1 factor was used to estimate the expected average elemental Mn concentration based on the initial dose per tablet.

B1: lactoferrin (protein, UniProt P24627 20-708, looked up)
Lactotransferrin: APRKNVRWCTISQPEWFKCRRWQWRMKKLGAPSITCVRRAFALECIRAIAEKKADAVTLDGGMVFEAGRDPYKLRPVAAEIYGTKESPQTHYYAVAVVKKGSNFQLDQLQGRKSCHTGLGRSAGWIIPMGILRPYLSWTESLEPLQGAVAKFFSASCVPCIDRQAYPNLCQLCKGEGENQCACSSREPYFGYSGAFKCLQDGAGDVAFVKETTVFENLPEKADRDQYELLCLNNSRAPVDAFKECHLAQVPSHAVVARSVDGKEDLIWKLLSKAQEKFGKNKSRSFQLFGSPPGQRDLLFKDSALGFLRIPSKVDSALYLGSRYLTTLKNLRETAEEVKARYTRVVWCAVGPEEQKKCQQWSQQSGQNVTCATASTTDDCIVLVLKGEADALNLDGGYIYTAGKCGLVPVLAENRKSSKHSSLDCVLRPTEGYLAVAVVKKANEGLTWNSLKDKKSCHTAVDRTAGWNIPMGLIVNQTGSCAFDEFFSQSCAPGADPKSRLCALCAGDDQGLDKCVPNSKEKYYGYTGAFRCLAEDVGDVAFVKNDTVWENTNGESTADWAKNLNREDFRLLCLDGTRKPVTEAQSCHLAVAPNHAVVSRSDRAAHVKQVLLHQQALFGKNGKNCPDKFCLFKSETKNLLFNDNTECLAKLGGRPTYEEYLGTEYVTAIANLKKCSTSPLLEACAFLTR
average concentration as fraction of the administered dose: 10%
